Measurements as given in patent US20160222058A1.

Target: Angiotensin converting enzyme (ACE)
Experiment: cell-based or functional assay

| Substance | IC50 (µg/ml), in vitro ACE inhibitory activity [µg/mL] |
| --- | --- |
| Ovotransferrin hydrolysate (thermolysin then pepsin) of ovotransferrin treated by sonication prior to hydrolysis | 9.2 |
| Ovotransferrin hydrolysate prepared by thermolysin, without reducing agent treatment | 215 |
| Ovotransferrin hydrolysate prepared by pepsin, without reducing agent treatment | 320 |
| Ovotransferrin hydrolysate prepared by thermolysin and pepsin in combination, without sonication or reducing agent treatment | 198 |
| Ovotransferrin hydrolysate (thermolysin then pepsin) of ovotransferrin treated with dithiothreitol prior to hydrolysis | 10.7 |
| Ovotransferrin hydrolysate (thermolysin then pepsin) of ovotransferrin treated with beta-mercaptoethanol prior to hydrolysis | 45.6 |
